According to article PMC4025573:

Columns and labels:
purified protein [1] = substrate: CC(=O)SCCNC(=O)CCNC(=O)[C@H](O)C(C)(C)COP(=O)(O)OP(=O)(O)OC[C@H]1O[C@@H](n2cnc3c(N)ncnc32)[C@H](O)[C@@H]1OP(=O)(O)O; assay: purified protein; details: pH 7.5; 25.0 °C
purified protein [2] = substrate: CC(C)C(=O)C(=O)O; assay: purified protein; details: pH 7.5; 25.0 °C

B1: MtIPMS (α-isopropylmalate synthase from Mycobacterium tuberculosis) (Mycobacterium tuberculosis H37Rv) (protein)
chain: MTTSESPDAYTESFGAHTIVKPAGPPRVGQPSWNPQRASSMPVNRYRPFAEEVEPIRLRNRTWPDRVIDRAPLWCAVDLRDGNQALIDPMSPARKRRMFDLLVRMGYKEIEVGFPSASQTDFDFVREIIEQGAIPDDVTIQVLTQCRPELIERTFQACSGAPRAIVHFYNSTSILQRRVVFRANRAEVQAIATDGARKCVEQAAKYPGTQWRFEYSPESYTGTELEYAKQVCDAVGEVIAPTPERPIIFNLPATVEMTTPNVYADSIEWMSRNLANRESVILSLHPHNDRGTAVAAAELGFAAGADRIEGCLFGNGERTGNVCLVTLGLNLFSRGVDPQIDFSNIDEIRRTVEYCNQLPVHERHPYGGDLVYTAFSGSHQDAINKGLDAMKLDADAADCDVDDMLWQVPYLPIDPRDVGRTYEAVIRVNSQSGKGGVAYIMKTDHGLSLPRRLQIEFSQVIQKIAEGTAGEGGEVSPKEMWDAFAEEYLAPVRPLERIRQHVDAADDDGGTTSITATVKINGVETEISGSGNGPLAAFVHALADVGFDVAVLDYYEHAMSAGDDAQAAAYVEASVTIASPAQPGEAGRHASDPVTIASPAQPGEAGRHASDPVTSKTVWGVGIAPSITTASLRAVVSAVNRAAR
Km (purified protein [1]): 42 ± 12 µM | kcat/Km (purified protein [1]): 80000 ± 20000 M⁻¹ s⁻¹ | Km (purified protein [2]): 6.4 ± 1.4 µM | kcat/Km (purified protein [2]): 500000 ± 130000 M⁻¹ s⁻¹
